In publication PMC10504565:

Target: endogenous POLR2A/RPB1, the largest subunit of RNA pol II, of HepG2 cells (human (endogenous in HepG2)) (UniProt P24928)
Assay: proximity ligation; fixed HepG2 cells (SHP-1 WT; SHP-1 KO as negative control), anti-SHP-1 and anti-RPB1 antibodies, Duolink In Situ kit; nuclear dots counted in at least 400 nuclei

Sequence of endogenous SHP-1 of HepG2 cells, P29350 1-595 (natural protein; other documents disagree on this pair) (P29350 whole entry): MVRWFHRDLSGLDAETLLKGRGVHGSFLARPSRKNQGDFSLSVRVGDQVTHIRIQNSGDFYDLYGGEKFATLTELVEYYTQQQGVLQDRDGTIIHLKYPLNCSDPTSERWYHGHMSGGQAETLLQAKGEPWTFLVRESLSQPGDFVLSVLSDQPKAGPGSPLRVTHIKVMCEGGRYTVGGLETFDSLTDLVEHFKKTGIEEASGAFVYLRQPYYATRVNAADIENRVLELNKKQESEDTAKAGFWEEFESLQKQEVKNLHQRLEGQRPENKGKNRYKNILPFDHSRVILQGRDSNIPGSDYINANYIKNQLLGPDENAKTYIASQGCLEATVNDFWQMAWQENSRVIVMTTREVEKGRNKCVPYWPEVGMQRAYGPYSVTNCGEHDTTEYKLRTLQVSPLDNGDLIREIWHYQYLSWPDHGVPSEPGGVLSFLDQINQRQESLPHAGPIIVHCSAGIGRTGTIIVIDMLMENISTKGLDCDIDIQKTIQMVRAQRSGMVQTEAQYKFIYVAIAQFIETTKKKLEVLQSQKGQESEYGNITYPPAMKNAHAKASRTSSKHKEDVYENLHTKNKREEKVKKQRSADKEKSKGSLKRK

- percent of nuclei with PLA dots: 44 % of nuclei
Substance: endogenous SHP-1 of HepG2 cells, P29350 1-595 (natural protein; other documents disagree on this pair)
